Measured values taken from patent publication US20080261201A1, “Methods and compounds to alter virus infection” (priority 2006, published 2008).
Read-outs that look alike come from different tables or passages of the source.

Assays:
AAV2 [1] = assay: AAV2 (AV2Luc) transduction of HeLa cells, luciferase activity; format: cell-based; conditions: for inhibition of AAV2 transduction: DPI 10 μM
Description: (§1) Recombinant type-2 adeno-associated viruses encoding luciferase (AV2Luc) or factor VIII (AV2FVIII) transgenes were used for infection of different cell types. HeLa and IB3 cells were cultured in DMEM supplemented with 10% fetal bovine serum (FBS) and antibiotics. Nox 1 and Nox2 knockout and wild-type (wt) littermate control mouse dermal fibroblasts were generated from newborn mice as described in Bosu et al. (2001) and below. For all infections, viruses were applied to cells in serum-free DMEM, and an equal volume of 20% FBS/DMEM was added at 2 hours post-infection.
(§2) In studies evaluating viral entry, cells were incubated with 1,000 particles/cell of AV2FVIII at 4° C. for 30 minutes prior to removing virus, washing cells, and shifting cells to 37° C. Cells were then incubated for the indicated times and postnuclear supernatants (PNS) were prepared for analysis of intracellular AAV2. Taqman PCR was used to quantify the abundance of viral genomes in different subcellular fractions following infection using primer sets and methods described in Ding et al. (2006). When proteasome inhibitors were added to induce AAV2 transduction, LLnL (Boston Biochem, Cambridge, Mass.) and/or doxorubicin (Calbiochem, San Diego, Calif.), were present in the medium at concentrations of 40 μM and 5 μM, respectively. Modulation of endosomal ROS was achieved by adding 1 mg/mL of purified bovine Cu/Zn superoxide dismutase (Cu/ZnSOD) (Oxis Research, Portland, Oreg.) and/or catalase (Sigma-Aldrich, St. Louis, Mo.) to the medium which was then applied to cells 20 minutes prior to viral infections unless indicated otherwise. SOD and/or catalase remained in the medium during infection unless otherwise indicated.

AAV2 [2] = conditions: Sanlioglu et al., 2004; 1999; cited from earlier work
AAV2 capsid PLA2 = AAV2 capsid PLA2 (Adeno-associated virus 2, UniProt P03135)
Sequence of AAV2 capsid PLA2 (P03135 whole entry): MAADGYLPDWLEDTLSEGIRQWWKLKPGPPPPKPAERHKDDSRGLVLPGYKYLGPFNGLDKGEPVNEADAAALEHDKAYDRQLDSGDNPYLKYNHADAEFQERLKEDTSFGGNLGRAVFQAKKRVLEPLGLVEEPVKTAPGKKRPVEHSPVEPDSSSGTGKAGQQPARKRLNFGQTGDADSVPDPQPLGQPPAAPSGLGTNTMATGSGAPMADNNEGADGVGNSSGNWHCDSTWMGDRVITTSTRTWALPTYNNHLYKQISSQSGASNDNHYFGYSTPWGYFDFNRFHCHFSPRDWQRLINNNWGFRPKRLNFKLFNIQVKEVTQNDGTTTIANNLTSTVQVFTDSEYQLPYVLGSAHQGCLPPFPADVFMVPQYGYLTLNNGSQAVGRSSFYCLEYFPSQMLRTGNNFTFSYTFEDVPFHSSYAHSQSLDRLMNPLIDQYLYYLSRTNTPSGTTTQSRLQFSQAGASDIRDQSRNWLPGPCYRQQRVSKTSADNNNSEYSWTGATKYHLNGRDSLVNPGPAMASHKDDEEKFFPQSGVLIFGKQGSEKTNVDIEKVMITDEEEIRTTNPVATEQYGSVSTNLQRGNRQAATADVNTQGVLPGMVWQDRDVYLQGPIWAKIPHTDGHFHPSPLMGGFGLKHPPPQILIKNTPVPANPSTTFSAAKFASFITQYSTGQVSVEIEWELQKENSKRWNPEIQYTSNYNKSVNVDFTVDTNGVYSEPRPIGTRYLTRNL
Sequence of AAV2 capsid PLA2 (P03135 1-598 isoform P03135-2 partner): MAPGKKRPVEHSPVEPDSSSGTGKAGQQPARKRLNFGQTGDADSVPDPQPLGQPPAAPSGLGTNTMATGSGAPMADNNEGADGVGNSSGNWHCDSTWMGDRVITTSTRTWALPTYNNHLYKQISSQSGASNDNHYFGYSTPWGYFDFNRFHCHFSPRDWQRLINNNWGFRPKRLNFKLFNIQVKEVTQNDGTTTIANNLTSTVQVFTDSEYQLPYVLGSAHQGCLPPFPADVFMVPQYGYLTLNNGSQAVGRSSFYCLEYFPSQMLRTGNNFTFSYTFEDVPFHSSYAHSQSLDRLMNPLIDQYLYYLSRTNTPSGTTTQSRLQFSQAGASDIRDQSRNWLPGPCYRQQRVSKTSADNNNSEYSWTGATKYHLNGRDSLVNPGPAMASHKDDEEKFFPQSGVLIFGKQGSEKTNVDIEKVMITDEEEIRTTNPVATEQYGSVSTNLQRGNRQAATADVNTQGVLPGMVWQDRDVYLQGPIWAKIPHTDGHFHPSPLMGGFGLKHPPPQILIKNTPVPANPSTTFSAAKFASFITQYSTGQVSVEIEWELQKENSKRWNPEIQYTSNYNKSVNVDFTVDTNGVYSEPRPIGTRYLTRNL
Sequence of AAV2 capsid PLA2 (P03135 203-735 partner limits assumed): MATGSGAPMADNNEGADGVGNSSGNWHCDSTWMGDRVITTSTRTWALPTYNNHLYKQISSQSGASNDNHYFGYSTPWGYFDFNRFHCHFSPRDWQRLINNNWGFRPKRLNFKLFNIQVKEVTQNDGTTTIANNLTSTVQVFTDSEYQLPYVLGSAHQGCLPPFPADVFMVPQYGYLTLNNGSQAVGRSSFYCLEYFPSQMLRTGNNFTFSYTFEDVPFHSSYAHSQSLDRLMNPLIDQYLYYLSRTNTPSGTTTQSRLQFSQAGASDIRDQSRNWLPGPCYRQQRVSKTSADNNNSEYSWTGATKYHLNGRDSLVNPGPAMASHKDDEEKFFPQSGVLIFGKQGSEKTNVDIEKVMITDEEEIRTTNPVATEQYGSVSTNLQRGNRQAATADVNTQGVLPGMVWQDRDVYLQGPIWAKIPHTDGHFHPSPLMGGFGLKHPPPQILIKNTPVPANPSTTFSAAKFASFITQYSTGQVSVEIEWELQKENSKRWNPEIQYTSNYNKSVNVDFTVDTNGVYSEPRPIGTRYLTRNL
Description: 10^10 purified AV2FVIII virions were treated with various conditions to activate PLA2 activity in the capsid of purified virions. This included pre-incubation of virus with various concentration of H2O2 for 15 minutes at 37° C. or partial heat denaturation at 70° C. for 2 minutes. Catalase was added to virus treated with H2O2 at the end of the treatment period to scavenge H2O2 prior to the PLA2 activity assay. PLA2 activity of virions was determined by the release of radioactive fatty acid from L-3-phosphatidylcholine (PC), 1,2-di[1-^14C]oleoyl using the protocol described by Zadori et al. (2001).

AAV2 capsid [3] = molecular target: T1, AAV2 capsid (Adeno-associated virus 2, UniProt P03135); conditions: 100 nM H2O2
T1 sequence (P03135 whole entry): as the sequence (P03135 whole entry) above
T1 sequence (P03135 1-598 isoform P03135-2): as the sequence (P03135 1-598 isoform P03135-2 partner) above
T1 sequence (P03135 203-735): as the sequence (P03135 203-735 partner limits assumed) above
Description: Subtle changes in capsid structure of the virion following heat denaturation or exposure to H2O2 was assayed using MALDI-TOF mass spectrometry following trypsin digestion. Briefly, 10^10 AAV2 particles were treated with H2O2 (which was then removed by dialysis for 1 hour against 20 mM Tris, 20 mM NaCl, pH 8.0) or heated to 70° C. as described above and then incubated with 500 ng of porcine trypsin in 25 mM NH4HCO3 (pH 8.0) at 37° C. for 16 hours. The digested products were then sequentially incubated with 10 mM DTT and 55 mM of iodoacetamide to reduce and modify cysteine residues. 1/20 of the original sample was assayed on a Bruker Biflex III MALDI-TOF MS. For the analysis of cysteine modification, the theoretical m/z values of peptides containing individual cysteines were predicted without modification, with iodoacetamide modification, and with different oxidative (sulfenic, sulfinic, or sulfonic) modifications. Spectra were evaluated using ExPASy (http://us.expasy.org/tools/peptide-mass.html) and compared to the theoretical spectra for various VP proteins.

AAV2 capsid [4] = molecular target: T1, AAV2 capsid; conditions: following 100 nM H2O2 treatment; data not shown
AAV2 [5] = assay: AAV2 (AV2Luc) transduction of IB3 cells, luciferase activity; format: cell-based
Description: as §1
(§3) In studies evaluating the efficiency of viral transduction, AV2Luc virus was used at a multiplicity of infection (MOI) equal to 1,000 particles/cell, and luciferase activity was measured at 24 hours post-infection. In studies evaluating viral entry, cells were incubated with 1,000 particles/cell of AV2FVIII at 4° C. for 30 minutes prior to removing virus, washing cells, and shifting cells to 37° C. Cells were then incubated for the indicated times and postnuclear supernatants (PNS) were prepared for analysis of intracellular AAV2. Taqman PCR was used to quantify the abundance of viral genomes in different subcellular fractions following infection using primer sets and methods described in Ding et al. (2006). […]

AAV2 [6] = assay: AAV2 (AV2Luc) transduction of Nox1/Nox2 WT and KO primary mouse dermal fibroblasts (PMDF); format: cell-based; conditions: catalase 1 mg/ml
Description: as §1, §3

NADPH oxidase = molecular target: T2, NADPH oxidase (Homo sapiens, UniProt P04839); assay: NADPH-dependent superoxide production in endosomal (vesicular) fractions, lucigenin-based assay; format: biochemical; conditions: HeLa cells; 20 minutes following infection; catalase 1 mg/mL
T2 construct: endogenous in cells; host or cells: iodixanol-fractionated endosomal (vesicular) fractions of HeLa and IB3 cells after AAV2 infection
Description: Vesicular fractionation was performed using a previously described protocol (Li et al., 2006b) with minor modifications. Briefly, cells were harvested by scraping and washing twice in 4° C. phosphate-buffered saline (PBS). Cells were then pelleted and resuspended on ice in 1 mL of pre-cooled (4° C.) homogenization buffer (0.25 M sucrose, 10 mM triethanolamine, 1 mM EDTA, 1 mM PMSF, and 100 μg/mL aprotinin) and homogenized using a nitrogen decompression vessel (Parr Instrument, Moline, Ill.). Methods for generating PNS, iodixanol isolation of vesicular fractions, sample collection, quality control, and Nox activity assays were performed as described in Li et al. (2006b).
In brief, vesicular fractions were confirmed by Western blot to contain known endosomal Rab proteins and be devoid of markers for plasma membrane and mitochondria. Nox activities were analyzed by measuring the rate of .O2— generation using a chemiluminescent, lucigenin-based system. […] The reaction was initiated by the addition of 100 μM of NADPH (Sigma-Aldrich, St. Louis, Mo.) and changes in luminescence were measured over the course of 3 min (5 readings/sec). The slope of the luminescence curve (relative light units [RLU] per minute) (r>0.95) was used to calculate the rate of .O2^− formation as an index of NADPH oxidase activity.

AAV2 [7] = assay: Virion endosomal escape assay (30% iodixanol cushion) in HeLa cells; format: cell-based; conditions: 1 hour following infection, catalase loading
Description: A protocol using a 30% iodixanol cushion was developed to separate AAV2 virions in the cytoplasm from those inside endosomes. Briefly, HeLa cells were incubated with 1,000 particles/cell of AAV2 at 4° C. for 30 minutes before removing virus, washing cells, and shifting cells to 37° C. Cells were then incubated for the indicated times and PNS were prepared. A total volume of 500 μl PNS was then loaded on the top of 250 μl 30% iodixanol, followed by centrifugation at 100,000×g for 1 hour. Viral genome within the supernatant and pellet were quantified by real-time PCR.

AAV2 [8] = assay: Viral uptake/accumulation, viral genomes quantified by Taqman PCR, HeLa cells; format: cell-based
Description: as §2, with “In studies evaluating the efficiency of viral transduction, AV2Luc virus was used at a multiplicity of infection (MOI) equal to 1,000 particles/cell, and luciferase activity was measured at 24 hours post-infection. In” for “In”

[9] = HeLa cells, antimycin A 10 μM, L-NMMA 5 mM, rotenone 2 nM, 16 hours post-infection

Q: With `c1ccc2c(c1)[I+]c1ccccc1-2` [DPI] as the molecule, how does the “inhibition of AAV2 transduction” value (AAV2 [1]; HeLa cells, absence of proteasome inhibitors, 16 hours post-infection) read?
A: 100 fold

Q: What about the “inhibition of AAV2 transduction” value (AAV2 [1]; HeLa cells, presence of proteasome inhibitors, 16 hours post-infection) of the same molecule?
A: 1000 fold

Q: With `CC(=O)N[C@@H](CS)C(=O)O` [NAC, N-acetyl-L-cysteine] as the molecule, how does the “effect on AAV2 transduction” value (AAV2 [2]) read?
A: inhibit transduction

Q: Which “effect on AAV2 transduction” value (AAV2 [1]; [9]) does the source give for antimycin A here?
A: did not significantly affect

Q: For “SOD1: purified bovine Cu/Zn superoxide dismutase (Oxis Research)”, which “effect on AAV2 transduction” value (AAV2 [1]; endosomal loading with purified SOD1, absence or presence of proteasome inhibitors) is on record?
A: failed to alter

Q: Which “effect on AAV2 transduction” value (AAV2 [1]; [9]) does the source give for `CC(=O)O.CNC(=N)NCCC[C@H](N)C(=O)O` [L-NMMA, N^G-monomethyl-L-arginine acetate] here?
A: did not significantly affect

Q: With `C=C(C)[C@H]1Cc2c(ccc3c2O[C@@H]2COc4cc(OC)c(OC)cc4[C@@H]2C3=O)O1` [rotenone] as the molecule, how does the “effect on AAV2 transduction” value (AAV2 [1]; [9]) read?
A: did not significantly affect

Q: With `OO` [H2O2, hydrogen peroxide] as the molecule, how does the “PLA2 activity of H2O2-treated virions” value (AAV2 capsid PLA2) read?
A: greater than that seen following partial virion heat denaturation

Q: And the “optimal concentration of H2O2 for PLA2 activation” value (AAV2 capsid PLA2)?
A: 100 nM

Q: What about the “tryptic digestion of AAV2 virions after pre-treatment” value (AAV2 capsid [3]) of the same molecule?
A: significantly enhanced tryptic digestion

Q: What about the “number of cysteines that form sulfonic acid in the capsid” value (AAV2 capsid [4]) of the same molecule?
A: < 5%

Q: And the “effect on AAV2 transduction” value (AAV2 [2])?
A: increase AAV2 transduction

B1: catalase: purified bovine catalase (Sigma-Aldrich) loaded into endosomes to clear H2O2 (protein, UniProt P00432 2-527, looked up)
Catalase: ADNRDPASDQMKHWKEQRAAQKPDVLTTGGGNPVGDKLNSLTVGPRGPLLVQDVVFTDEMAHFDRERIPERVVHAKGAGAFGYFEVTHDITRYSKAKVFEHIGKRTPIAVRFSTVAGESGSADTVRDPRGFAVKFYTEDGNWDLVGNNTPIFFIRDALLFPSFIHSQKRNPQTHLKDPDMVWDFWSLRPESLHQVSFLFSDRGIPDGHRHMNGYGSHTFKLVNANGEAVYCKFHYKTDQGIKNLSVEDAARLAHEDPDYGLRDLFNAIATGNYPSWTLYIQVMTFSEAEIFPFNPFDLTKVWPHGDYPLIPVGKLVLNRNPVNYFAEVEQLAFDPSNMPPGIEPSPDKMLQGRLFAYPDTHRHRLGPNYLQIPVNCPYRARVANYQRDGPMCMMDNQGGAPNYYPNSFSAPEHQPSALEHRTHFSGDVQRFNSANDDNVTQVRTFYLKVLNEEQRKRLCENIAGHLKDAQLFIQKKAVKNFSDVHPEYGSRIQALLDKYNEEKPKNAVHTYVQHGSHLSAREKANL
Q: With B1 as the molecule, how does the “effect on ability of proteasome inhibitors to enhance AAV2 transduction” value (AAV2 [1]; HeLa cells, 40 μM LLnL and 5 μM doxorubicin) read?
A: completely abolished

Q: What about the “effect on AAV2 transduction (luciferase transgene expression)” value (AAV2 [1]; HeLa cells, 1 mg/mL catalase endosomal loading) of the same molecule?
A: significantly inhibited

Q: What about the “ability of catalase loading to inhibit viral transduction” value (AAV2 [1]; catalase added by 30 minutes post-infection) of the same molecule?
A: significantly declined

Q: What about the “ability of catalase loading to inhibit viral transduction” value (AAV2 [1]; catalase added by 60 minutes post-infection) of the same molecule?
A: completely absent

Q: And the “decrease of rAAV2 transduction by catalase loading” value (AAV2 [1]; endosomal catalase loading, cell type not stated in b12)?
A: about 80 fold

Q: What about the “effect on ability of proteasome inhibitors to enhance AAV2 transduction” value (AAV2 [5]; 40 μM LLnL and 5 μM doxorubicin) of the same molecule?
A: completely abolished

Q: What about the “effect on AAV2 transduction (luciferase transgene expression)” value (AAV2 [5]; 1 mg/mL catalase endosomal loading) of the same molecule?
A: significantly inhibited

Q: And the “effect on AAV2 transduction” value (AAV2 [6]; Nox1+/+ and Nox1-/- PMDFs, baseline and proteasome inhibitor induced)?
A: inhibited transduction

Q: And the “effect on AAV2 transduction” value (AAV2 [6]; Nox2-/- PMDFs)?
A: did not significantly alter

Q: What about the “effect on Nox activity in the endosomal compartment” value (NADPH oxidase) of the same molecule?
A: did not affect

Q: What about the “inhibition of viral escape from endosomes” value (AAV2 [7]) of the same molecule?
A: about 3 fold

Q: And the “effect on viral uptake” value (AAV2 [8]; 1 mg/mL catalase)?
A: not due to impaired viral uptake

Q: And the “effect on viral accumulation in the endosomal compartment” value (AAV2 [8]; 20 minutes following infection, catalase 1 mg/mL)?
A: did not affect
